Molecular target: the molecule itself
Test: sucrose gradient velocity sedimentation

B1: C213Y Prph2 (natural protein, UniProt P15499 1-346, looked up)
chain: MALLKVKFDQKKRVKLAQGLWLMNWLSVLAGIVLFSLGLFLKIELRKRSEVMNNSESHFVPNSLIGVGVLSCVFNSLAGKICYDALDPAKYAKWKPWLKPYLAVCIFFNVILFLVALCCFLLRGSLESTLAYGLKNGMKYYRDTDTPGRCFMKKTIDMLQIEFKCCGNNGFRDWFEIQWISNRYLDFSSKEVKDRIKSNVDGRYLVDGVPFSYCNPSSPRPCIQYQLTNNSAHYSYDHQTEELNLWLRGCRAALLNYYSSLMNSMGVVTLLVWLFEVSITAGLRYLHTALESVSNPEDPECESEGWLLEKSVPETWKAFLESFKKLGKSNQVEAEGADAGPAPEAG
modifications: N-linked glycan (the paper shows that the mutant is glycosylated; Asn229 is the site in Prph2)
With B1 the “stoichiometry N” value was 4.

Source: paper PMC7592630 (FASEB journal : official publication of the Federation of …, 2019)
